This is an account of results in PMC6497270, “Thermodynamic investigation of DNA-binding affinity of wild-type and mutant transcription factor RUNX1”.

The term Kd denotes the constant that tells how readily two partners part at equilibrium.

One series has as its target RUNX1 K83E (Homo sapiens, UniProt Q01196 1-181, K83E). The series can be described thus: ITC; without CBFβ; no significant enthalpy change; ITC: 20 uM RUNX1 in cell, 100 uM DNA in syringe, 10 mM HEPES-NaOH pH 7.5, 180 mM NaCl, 0.005% Tween 20; temperature stated as 277 K (Methods) but 25 °C (Results). The settings on record: protein: recombinant; tags: N-terminal His6; (21 bp).

In a further series the target is RUNX1 K83R/H179K;CBFβ (Homo sapiens;Homo sapiens?, UniProt Q01196;Q13951 1-181;1-141, K83R;H179K|). Nature of the series: ITC; RUNX1:CBFβ 1:2; ITC: 20 uM RUNX1 in cell, 100 uM DNA in syringe, 10 mM HEPES-NaOH pH 7.5, 180 mM NaCl, 0.005% Tween 20; temperature stated as 277 K (Methods) but 25 °C (Results). The settings on record: protein: recombinant;recombinant; tags: N-terminal His6;; copies: 1;1; (21 bp). (In ITC the heat of successive injections is recorded.)

A further series addresses RUNX1 H179K;CBFβ (Homo sapiens;Homo sapiens?, UniProt Q01196;Q13951 1-181;1-141, H179K|). The series is described as above. Particulars: protein: recombinant;recombinant; tags: N-terminal His6;; copies: 1;1; (21 bp).
The target in series [1] is RUNX1 WT (RUNT-containing);CBFβ (Homo sapiens;Homo sapiens?, UniProt Q01196;Q13951 1-181;1-141, |). The description is as above. Particulars: protein: recombinant;recombinant; tags: N-terminal His6;; copies: 1;1; (21 bp).
The next series has as its target RUNX1 K83R;CBFβ (Homo sapiens;Homo sapiens?, UniProt Q01196;Q13951 1-181;1-141, K83R|). Described as above. Particulars: protein: recombinant;recombinant; tags: N-terminal His6;; copies: 1;1; (21 bp).
For another series, the target named is RUNX1 R139Q;CBFβ (Homo sapiens;Homo sapiens?, UniProt Q01196;Q13951 1-181;1-141, R139Q|). The series is described as above. Particulars: protein: recombinant;recombinant; tags: N-terminal His6;; copies: 1;1; (21 bp).
The target of the next series is RUNX1 S114L;CBFβ (Homo sapiens;Homo sapiens?, UniProt Q01196;Q13951 1-181;1-141, S114L|). Described as above. The settings on record: protein: recombinant;recombinant; tags: N-terminal His6;; copies: 1;1; (21 bp).
Series [2] deals with RUNX1 WT (RUNT-containing) (Homo sapiens, UniProt Q01196 1-181). The series can be described thus: ITC; without CBFβ; ITC: 20 uM RUNX1 in cell, 100 uM DNA in syringe, 10 mM HEPES-NaOH pH 7.5, 180 mM NaCl, 0.005% Tween 20; temperature stated as 277 K (Methods) but 25 °C (Results). Particulars: protein: recombinant; tags: N-terminal His6; (21 bp).
A further series deals with RUNX1 H179K (Homo sapiens, UniProt Q01196 1-181, H179K). The description is as above. Particulars: protein: recombinant; tags: N-terminal His6; (21 bp).
A further series has as its target RUNX1 K83R (Homo sapiens, UniProt Q01196 1-181, K83R). Described as above. The settings on record: protein: recombinant; tags: N-terminal His6; (21 bp).
For another series, the target named is RUNX1 K83R/H179K (Homo sapiens, UniProt Q01196 1-181, K83R;H179K). The description is as above. Particulars: protein: recombinant; tags: N-terminal His6; (21 bp).
A further series has as its target RUNX1 S114L (Homo sapiens, UniProt Q01196 1-181, S114L). The description is as above. The settings on record: protein: recombinant; tags: N-terminal His6; (21 bp).
The target of another series is RUNX1 R139Q (Homo sapiens, UniProt Q01196 1-181, R139Q). The series is described as above. The settings on record: protein: recombinant; tags: N-terminal His6; (21 bp).
The target of the next series is RUNX1 K83E;CBFβ (Homo sapiens;Homo sapiens?, UniProt Q01196;Q13951 1-181;1-141, K83E|). Nature of the series: ITC; RUNX1:CBFβ 1:2; no significant enthalpy change; ITC: 20 uM RUNX1 in cell, 100 uM DNA in syringe, 10 mM HEPES-NaOH pH 7.5, 180 mM NaCl, 0.005% Tween 20; temperature stated as 277 K (Methods) but 25 °C (Results). Particulars: protein: recombinant;recombinant; tags: N-terminal His6;; copies: 1;1; (21 bp).
RUNX1 K83E;CBFβ, sequence (Q01196 1-181 K83E, chain 1 of 2): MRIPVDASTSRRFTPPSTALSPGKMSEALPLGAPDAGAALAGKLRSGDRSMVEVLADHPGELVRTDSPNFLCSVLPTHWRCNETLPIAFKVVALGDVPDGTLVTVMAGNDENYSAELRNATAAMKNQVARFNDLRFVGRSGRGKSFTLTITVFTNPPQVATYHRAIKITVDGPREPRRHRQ
RUNX1 K83E;CBFβ, sequence (Q13951 1-141, chain 2 of 2): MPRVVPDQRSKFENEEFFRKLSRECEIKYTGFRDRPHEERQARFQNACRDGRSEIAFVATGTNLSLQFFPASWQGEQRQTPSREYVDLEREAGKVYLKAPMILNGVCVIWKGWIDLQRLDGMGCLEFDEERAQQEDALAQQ

RUNX1 K83E, sequence (Q01196 1-181 K83E): as the sequence (Q01196 1-181 K83E, chain 1 of 2) above
RUNX1 R139Q;CBFβ, sequence (Q01196 1-181 R139Q, chain 1 of 2): as the sequence (Q01196 1-181 K83E, chain 1 of 2) above, with E83K, R139Q counted along it
RUNX1 R139Q;CBFβ, sequence (Q13951 1-141, chain 2 of 2): as the sequence (Q13951 1-141, chain 2 of 2) above
RUNX1 R139Q, sequence (Q01196 1-181 R139Q): as the sequence (Q01196 1-181 K83E, chain 1 of 2) above, with E83K, R139Q counted along it
RUNX1 K83R;CBFβ, sequence (Q01196 1-181 K83R, chain 1 of 2): as the sequence (Q01196 1-181 K83E, chain 1 of 2) above, with E83R counted along it
RUNX1 K83R;CBFβ, sequence (Q13951 1-141, chain 2 of 2): as the sequence (Q13951 1-141, chain 2 of 2) above
RUNX1 K83R, sequence (Q01196 1-181 K83R): as the sequence (Q01196 1-181 K83E, chain 1 of 2) above, with E83R counted along it
RUNX1 WT (RUNT-containing), sequence (Q01196 1-181): as the sequence (Q01196 1-181 K83E, chain 1 of 2) above, with E83K counted along it
RUNX1 WT (RUNT-containing);CBFβ, sequence (Q01196 1-181, chain 1 of 2): as the sequence (Q01196 1-181 K83E, chain 1 of 2) above, with E83K counted along it
RUNX1 WT (RUNT-containing);CBFβ, sequence (Q13951 1-141, chain 2 of 2): as the sequence (Q13951 1-141, chain 2 of 2) above
RUNX1 K83R/H179K, sequence (Q01196 1-181 K83R/H179K): as the sequence (Q01196 1-181 K83E, chain 1 of 2) above, with E83R, H179K counted along it
RUNX1 K83R/H179K;CBFβ, sequence (Q01196 1-181 K83R/H179K, chain 1 of 2): as the sequence (Q01196 1-181 K83E, chain 1 of 2) above, with E83R, H179K counted along it
RUNX1 K83R/H179K;CBFβ, sequence (Q13951 1-141, chain 2 of 2): as the sequence (Q13951 1-141, chain 2 of 2) above
RUNX1 H179K, sequence (Q01196 1-181 H179K): as the sequence (Q01196 1-181 K83E, chain 1 of 2) above, with E83K, H179K counted along it
RUNX1 H179K;CBFβ, sequence (Q01196 1-181 H179K, chain 1 of 2): as the sequence (Q01196 1-181 K83E, chain 1 of 2) above, with E83K, H179K counted along it
RUNX1 H179K;CBFβ, sequence (Q13951 1-141, chain 2 of 2): as the sequence (Q13951 1-141, chain 2 of 2) above
RUNX1 S114L, sequence (Q01196 1-181 S114L): as the sequence (Q01196 1-181 K83E, chain 1 of 2) above, with E83K, S114L counted along it
RUNX1 S114L;CBFβ, sequence (Q01196 1-181 S114L, chain 1 of 2): as the sequence (Q01196 1-181 K83E, chain 1 of 2) above, with E83K, S114L counted along it
RUNX1 S114L;CBFβ, sequence (Q13951 1-141, chain 2 of 2): as the sequence (Q13951 1-141, chain 2 of 2) above

B1: CSF-1R promoter 21 bp DNA (dsDNA)
DNA 1: CAAACTCTGTGGTTGCCTTGC
DNA 2: GCAAGGCAACCACAGAGTTTG
For the molecule B1, the binding result in the series with RUNX1 K83E and with RUNX1 K83E;CBFβ was “no binding” each time. The Kd worked out at 73 ± 5 nM with RUNX1 K83R/H179K;CBFβ; 100 ± 40 nM in the series with RUNX1 H179K;CBFβ; 230 ± 50 nM in series [1]; 160 ± 30 nM with RUNX1 K83R;CBFβ; 3350 ± 800 nM with RUNX1 R139Q;CBFβ; 390 ± 80 nM in the series with RUNX1 S114L;CBFβ. In addition, the Kd in series [2] amounted to 490 ± 10 nM; with RUNX1 H179K, 350 ± 120 nM; with RUNX1 K83R it was 480 ± 150 nM; with RUNX1 K83R/H179K it was 290 ± 50 nM; with RUNX1 S114L, 700 ± 80 nM; with RUNX1 R139Q, 1480 ± 510 nM.
